Reference: patent publication US20150203579A1
Where two headings read alike, the source gives them in different places.

Tests used:
[1] = target: recombinant human PD-1 dimer expressed with a C-terminal mouse IgG2a Fc tag (human); experiment: competition ELISA: 1.5 nM hPD-1-mFc to coated hPD-L1-hFc; NBI
[2] = target: dimeric biotinylated human PD-1 protein with a C-terminal human Fc tag (human); experiment: competition ELISA: 200 pM biot-hPD-1-hFc to coated hPD-L1-mFc; NBI
[3] = target: recombinant human PD-1 dimer expressed with a C-terminal mouse IgG2a Fc tag (human); experiment: competition ELISA: 100 pM hPD-1-mFc to coated hPD-L2-hFc; NBI
[4] = target: full length human PD-1 on HEK293/hPD-1 cells (human) (UniProt Q15116); experiment: FACS dose response, HEK293/hPD-1 cells; control
[5] = target: PD-1 chimera: extracellular domain of human PD-1 with trans-membrane and cytoplasmic domains of human CD300a, on Jurkat/AP1-Luc cells (human) (UniProt Q9UGN4); experiment: cell-based or functional assay
[6] = target: full length human PD-1 on HEK293/hPD-1 cells (human) (UniProt Q15116); experiment: FACS dose response, HEK293/hPD-1 cells; control; remark: listed apart in the source

Row | Max Geom. Mean MFI @ 100 nM [4] [MFI] | Max Geom. Mean MFI @ 100 nM [6] [MFI] | Substance | further results
1 | – | – | Isotype control 1 (antibody) | % blocking at 200 nM antibody [1]: -3%; % blocking at 50 nM antibody [2]: 19%
2 | – | – | Isotype control 2 (antibody) | % blocking at 100 nM antibody [3]: -27%
3 | 809 | – | hIgG4 isotype control (antibody) | Emax mean [%] @ 100 nM [5]: 98%
4 | 858 | 200 | mIgG1 isotype control (antibody) | –
5 | 352 | 239 | mIgG2a isotype control (antibody) | –
